Results on 40 molecules are retold here after patent US20260242478A1 (published 2026).

The chains are these.
B1: Phage-2403 (peptide)
peptide: IEKWCIPQWMCGNP
modifications: cysteine pairing not given here; also: fused to phage pIII (clonal phage display)
B2: Phage-2406 (peptide)
peptide: PDKWCIPQWMCSQM
modifications: cysteine pairing not given here; also: fused to phage pIII (clonal phage display)

Where no end group is shown, it is not given here.

The first test concerns the target T1, 006 PSMA Fab.
T1 construct: Biotinylated and captured on neutravidin-coated plates in the phage ELISA; also called Anti-PSMA Fab
In words: clonal phage ELISA; biotinylated PSMA Fab on neutravidin plate, anti-M13-HRP detection.
Experimental: (§1) Clonal phage were harvested as crude supernatants and screened via standard ELISAs. […] Prior to the addition of clonal phage. wells were incubated with blocking buffer and PSMA antigen or blocking buffer alone. Without washing or aspirating, clonal phage supernatants were then added to the wells and incubated for a short time. Wells were then washed followed by detection of bound phage using a horse radish conjugated anti-M13 antibody.
Turning to IPKWCTPVWMCAGF [Phage-2385], the “phage binding ELISA signal” value worked out at 1.38.
Same read-out and setting: then DFMRCTPEWMCTGF [Phage-2382], with 1.39.
Same read-out and setting: then DAKWCIPDWMCYGF [Phage-2387], with 1.38.
On the same count and under the same terms, next, DGKWCIPPWMCAMA [Phage-2375]: 1.4.
As for TIKWCTPPWMCIMN [Phage-2388], the “phage binding ELISA signal” value stood at 1.38.
Regarding VEKWCKPEWMCTSL [Phage-2386], the “phage binding ELISA signal” value was 1.38.
The same measure, in the same setting: next, LHKWCTPAWMCEVP [Phage-2379]: 1.39; FYKWCTPEWMCTVN [Phage-2384]: 1.38.
Regarding PDKWCIPQWMCDIT [Phage-2376], the “phage binding ELISA signal” value is 1.39.
On the same count and under the same terms, then MGNWCIPEWMCWGT [Phage-2374], with 1.4; and HDKLCIPLWMCDGV [Phage-2377], with 1.39.
The same measure, in the same setting: then GEKWCIPTWMCDWT [Phage-2373], with 1.4.
Same read-out and setting: then VQKWCIPPWMCQIS [Phage-2380], with 1.39; and VVKWCIPTWMCQTL [Phage-2378], with 1.39.
Turning to FEHWCTPPWMCFSS [Phage-2383], the “phage binding ELISA signal” value worked out at 1.38.
The same measure, in the same setting: then LGIWCIPEWMCVSA [Phage-2381], with 1.39.

Another test deals with T1, 006 PSMA Fab. In words: clonal phage ELISA on PSMA Fab-coated plate; competitor: PSMA antigen pre-incubated in the well.
Experimental: as §1
On to IPKWCTPVWMCAGF [Phage-2385], for which the “phage binding ELISA signal in presence of PSMA” value is 0.0806.
With DFMRCTPEWMCTGF [Phage-2382], the “phage binding ELISA signal in presence of PSMA” value was 0.0663.
Same read-out and setting: next, DAKWCIPDWMCYGF [Phage-2387]: 0.0838; DGKWCIPPWMCAMA [Phage-2375]: 0.0859; TIKWCTPPWMCIMN [Phage-2388]: 0.103.
In the case of VEKWCKPEWMCTSL [Phage-2386], the “phage binding ELISA signal in presence of PSMA” value was determined as 0.0692.
The same measure, in the same setting: then LHKWCTPAWMCEVP [Phage-2379], with 0.0904.
Still for that read-out and setting: next, FYKWCTPEWMCTVN [Phage-2384]: 0.138.
The same measure, in the same setting: then PDKWCIPQWMCDIT [Phage-2376], with 0.0617; and MGNWCIPEWMCWGT [Phage-2374], with 0.0727; and HDKLCIPLWMCDGV [Phage-2377], with 0.0834.
On to GEKWCIPTWMCDWT [Phage-2373], for which the “phage binding ELISA signal in presence of PSMA” value turned out to be 0.0544.
For VQKWCIPPWMCQIS [Phage-2380], the “phage binding ELISA signal in presence of PSMA” value was determined as 0.0907.
Same read-out and setting: next, VVKWCIPTWMCQTL [Phage-2378]: 0.101.
On the same count and under the same terms, next, FEHWCTPPWMCFSS [Phage-2383]: 0.0713; LGIWCIPEWMCVSA [Phage-2381]: 0.0793.

A further test has as its target T2, PSMA Fab.
T2 construct: also called Anti-PSMA Fab; 006 PSMA Fab
Put plainly: phage ELISA, biotinylated PSMA Fab on neutravidin plate, bound phage detected with anti-M13-HRP.
Experimental: as §1
B1: the “Phage binding ELISA signal, Anti-PSMA Fab” value came out at 1.36.
For SPKWCTPSWMCELQ [Phage-2392], the “Phage binding ELISA signal, Anti-PSMA Fab” value was found to be 1.38.
EVKWCIPEWMCMVV [Phage-2396]: the “Phage binding ELISA signal, Anti-PSMA Fab” value came to 1.37.
Still for that read-out and setting: then HTTWCTPAWMCQGF [Phage-2404], with 1.36.
Regarding ASMWCIPPWMCAED [Phage-2395], the “Phage binding ELISA signal, Anti-PSMA Fab” value stood at 1.37.
For the molecule FPKWCTPSWMCDFV [Phage-2391], the “Phage binding ELISA signal, Anti-PSMA Fab” value came to 1.38.
Still for that read-out and setting: then DVRWCTPPWMCVAM [Phage-2400], with 1.37; and LEKWCRPAWMCNGM [Phage-2393], with 1.38; and MQHWCVPPWMCQSL [Phage-2401], with 1.37.
Same read-out and setting: next, VVKWCTPAWMCELQ [Phage-2397]: 1.37; WEKWCTPAWMCAVA [Phage-2399]: 1.37.
Same read-out and setting: next, WVKWCTPPWMCEWD [Phage-2389]: 1.38.
As to VMKWCTPEWMCQVF [Phage-2402], the “Phage binding ELISA signal, Anti-PSMA Fab” value was 1.37.
The same measure, in the same setting: then FGISCTPSWMCEGF [Phage-2398], with 1.37.
On the same count and under the same terms, next, LERWCIPDWMCEWP [Phage-2394]: 1.37; VFHLCMPPWMCSQD [Phage-2390]: 1.38.

The target of a further test is T3, PSMA Fab (006 PSMA Fab).
T3 construct: In the phage ELISA the PSMA Fab was biotinylated and captured on neutravidin coated plates; also called Anti-PSMA Fab; anti-PSMA Fab
Put plainly: clonal phage ELISA on biotinylated PSMA Fab captured on neutravidin plates, anti-M13-HRP detection.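 Also: crude clonal phage supernatants added to wells preincubated with PSMA antigen or with blocking buffer only (no wash between), briefly incubated, then washed before detecting bound phage.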
Experimental: as §1
MEKWCIPSWMCVGM [Phage-2405]: the “Phage binding ELISA signal, Anti-PSMA Fab” value worked out at 1.36.
Same read-out and setting: next, MHHWCIPAWMCSTE [Phage-2410]: 1.35.
On the same count and under the same terms, next, YIKWCTPPWMCELM [Phage-2409]: 1.35.
Same read-out and setting: then TVKWCVPPWMCSVP [Phage-2407], with 1.36.
Turning to B2, the “Phage binding ELISA signal, Anti-PSMA Fab” value was determined as 1.36.
Still for that read-out and setting: next, VDHWCTPEWMCVMM [Phage-2408]: 1.36.

For another test, the target named is T4, PSMA Fab (006 PSMA Fab).
T4 construct: also called Anti-PSMA Fab; anti-PSMA Fab
In words: clonal phage ELISA; biotinylated PSMA Fab on neutravidin plate, blocking buffer alone; anti-M13-HRP detection.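 Also: clonal phage applied as crude supernatants to wells preincubated with blocking buffer, binding read by ELISA.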
Experimental: as §1
With VDKWCIPAWMCVSA [Phage-2328], the “Phage binding ELISA signal, Anti-PSMA Fab” value worked out at 1.45.
Take SVHWCTPPWMCQGF [Phage-2327]: the “Phage binding ELISA signal, Anti-PSMA Fab” value came to 1.45.

A further test addresses T2, PSMA Fab. Put plainly: phage ELISA, biotinylated PSMA Fab on neutravidin plate pre-incubated with PSMA antigen as competitor, anti-M13-HRP.
Experimental: as §1
B1: the “Phage binding ELISA signal, Anti-PSMA Fab with PSMA antigen” value was found to be 0.0574.
Still for that read-out and setting: then SPKWCTPSWMCELQ [Phage-2392], with 0.06; and EVKWCIPEWMCMVV [Phage-2396], with 0.0647; and HTTWCTPAWMCQGF [Phage-2404], with 0.0895.
For the molecule ASMWCIPPWMCAED [Phage-2395], the “Phage binding ELISA signal, Anti-PSMA Fab with PSMA antigen” value stood at 0.085.
FPKWCTPSWMCDFV [Phage-2391]: the “Phage binding ELISA signal, Anti-PSMA Fab with PSMA antigen” value is 0.0984.
As to DVRWCTPPWMCVAM [Phage-2400], the “Phage binding ELISA signal, Anti-PSMA Fab with PSMA antigen” value stood at 0.078.
With LEKWCRPAWMCNGM [Phage-2393], the “Phage binding ELISA signal, Anti-PSMA Fab with PSMA antigen” value turned out to be 0.0594.
As to MQHWCVPPWMCQSL [Phage-2401], the “Phage binding ELISA signal, Anti-PSMA Fab with PSMA antigen” value was 0.082.
VVKWCTPAWMCELQ [Phage-2397]: the “Phage binding ELISA signal, Anti-PSMA Fab with PSMA antigen” value worked out at 0.0757.
On the same count and under the same terms, next, WEKWCTPAWMCAVA [Phage-2399]: 0.0716; WVKWCTPPWMCEWD [Phage-2389]: 0.123.
Take VMKWCTPEWMCQVF [Phage-2402]: the “Phage binding ELISA signal, Anti-PSMA Fab with PSMA antigen” value is 0.0622.
Same read-out and setting: then FGISCTPSWMCEGF [Phage-2398], with 0.0988; and LERWCIPDWMCEWP [Phage-2394], with 0.078.
Still for that read-out and setting: next, VFHLCMPPWMCSQD [Phage-2390]: 0.0997.

The target in another test is T3, PSMA Fab (006 PSMA Fab). In words: clonal phage ELISA on captured PSMA Fab, wells pre-incubated with PSMA antigen as competitor (column head not shown, assumed).
As for MEKWCIPSWMCVGM [Phage-2405], the “Phage binding ELISA signal, Anti-PSMA Fab with PSMA antigen” value came out at 0.0682.
MHHWCIPAWMCSTE [Phage-2410]: the “Phage binding ELISA signal, Anti-PSMA Fab with PSMA antigen” value is 0.0812.
Same read-out and setting: next, YIKWCTPPWMCELM [Phage-2409]: 0.15; TVKWCVPPWMCSVP [Phage-2407]: 0.0764.
For B2, the “Phage binding ELISA signal, Anti-PSMA Fab with PSMA antigen” value was found to be 0.0822.
Regarding VDHWCTPEWMCVMM [Phage-2408], the “Phage binding ELISA signal, Anti-PSMA Fab with PSMA antigen” value stood at 0.0963.

A further test concerns the target T4, PSMA Fab (006 PSMA Fab). In words: clonal phage ELISA; biotinylated PSMA Fab on neutravidin plate pre-incubated with competitor PSMA antigen; anti-M13-HRP detection.
Experimental: as §1
As to VDKWCIPAWMCVSA [Phage-2328], the “Phage binding ELISA signal, Anti-PSMA Fab in presence of PSMA antigen” value stood at 0.0715.
SVHWCTPPWMCQGF [Phage-2327]: the “Phage binding ELISA signal, Anti-PSMA Fab in presence of PSMA antigen” value stood at 0.0771.
